Experimental data as given in PMC9482650, “Quantitative fragmentomics allow affinity mapping of interactomes” (Nature Communications, 2022).

T1: GRIP1_7, Q9Y3R0
T1 sequence (Q9Y3R0 999-1096, limits assumed, looked up): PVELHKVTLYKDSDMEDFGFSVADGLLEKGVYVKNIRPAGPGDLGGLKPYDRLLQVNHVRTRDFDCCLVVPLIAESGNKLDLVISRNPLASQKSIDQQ

T2: MPDZ_10, O75970
T2 sequence (O75970 1624-1722, limits assumed, looked up): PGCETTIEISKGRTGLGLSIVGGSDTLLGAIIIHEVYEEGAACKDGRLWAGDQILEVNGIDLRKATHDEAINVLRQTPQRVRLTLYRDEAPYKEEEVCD

T3: LRRC7, Q96NW7
T3 sequence (Q96NW7 1440-1537, limits assumed, looked up): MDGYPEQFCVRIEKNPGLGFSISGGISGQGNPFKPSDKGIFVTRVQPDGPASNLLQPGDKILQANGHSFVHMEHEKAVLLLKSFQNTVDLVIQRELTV

T4: TJP3_3, O95049
T4 sequence (O95049 375-456, limits assumed, looked up): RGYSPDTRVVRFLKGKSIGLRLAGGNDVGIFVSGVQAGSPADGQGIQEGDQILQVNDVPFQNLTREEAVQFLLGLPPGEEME

T5: APBA2_1, Q99767
T5 sequence (Q99767 563-664, limits assumed, looked up): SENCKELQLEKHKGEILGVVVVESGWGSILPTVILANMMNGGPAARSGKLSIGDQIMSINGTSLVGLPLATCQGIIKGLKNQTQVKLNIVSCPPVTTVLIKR

T6: PTPN13_1, Q12923
T6 sequence (Q12923 1088-1188, limits assumed, looked up): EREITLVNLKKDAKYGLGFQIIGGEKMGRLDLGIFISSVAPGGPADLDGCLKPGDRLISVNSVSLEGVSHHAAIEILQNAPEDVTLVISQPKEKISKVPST

T7: DFNB31_2, Q9P202
T7 sequence (Q9P202 274-371, limits assumed, looked up): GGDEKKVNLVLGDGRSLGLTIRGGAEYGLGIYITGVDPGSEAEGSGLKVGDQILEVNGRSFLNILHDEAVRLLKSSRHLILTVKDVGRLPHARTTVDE

T8: SYNJ2BP, P57105
T8 sequence (P57105 8-110, limits assumed, looked up): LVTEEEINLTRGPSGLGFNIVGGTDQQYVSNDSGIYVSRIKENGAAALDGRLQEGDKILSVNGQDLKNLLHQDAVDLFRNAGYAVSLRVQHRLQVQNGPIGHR

T9: APBA3_1, O96018
T9 sequence (O96018 389-490, limits assumed, looked up): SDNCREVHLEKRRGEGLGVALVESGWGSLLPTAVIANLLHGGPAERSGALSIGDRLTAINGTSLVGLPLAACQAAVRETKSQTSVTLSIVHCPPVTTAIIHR

T10: SNTA1, Q13424
T10 sequence (Q13424 82-180, limits assumed, looked up): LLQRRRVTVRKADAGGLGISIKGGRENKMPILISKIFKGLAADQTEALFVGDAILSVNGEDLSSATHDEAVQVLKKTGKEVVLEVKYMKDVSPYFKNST

T11: MPDZ_12, O75970
T11 sequence (O75970 1857-1958, limits assumed, looked up): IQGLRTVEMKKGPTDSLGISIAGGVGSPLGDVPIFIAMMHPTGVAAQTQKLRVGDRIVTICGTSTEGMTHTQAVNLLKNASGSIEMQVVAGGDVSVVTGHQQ

T12: RHPN1, Q8TCX5
T12 sequence (Q8TCX5 508-602, limits assumed, looked up): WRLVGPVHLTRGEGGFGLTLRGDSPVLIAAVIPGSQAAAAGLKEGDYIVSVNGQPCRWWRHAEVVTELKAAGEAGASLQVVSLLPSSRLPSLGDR

T13: NHERF3_1, Q5T2W1
T13 sequence (Q5T2W1 4-100, limits assumed, looked up): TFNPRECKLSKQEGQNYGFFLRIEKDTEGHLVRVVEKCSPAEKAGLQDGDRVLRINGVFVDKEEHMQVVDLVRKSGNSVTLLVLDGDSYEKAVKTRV


Experiments:
Experiment in all cases: holdup assay
Parameters in all cases: key: below the threshold = too weak to quantify, mostly under pKd 3.1 to 4
Details in all cases: plain residues with an end cap or a label only (N-terminal biotin on a linker: ado-ado)
DLG1_3, Q12959 = biological target: DLG1_3, Q12959
CASK, O14936 = biological target: CASK, O14936
NHERF4_4, Q86UT5 = biological target: NHERF4_4, Q86UT5
GRIP1_7, Q9Y3R0 = biological target: T1, GRIP1_7, Q9Y3R0
MPDZ_10, O75970 = biological target: T2, MPDZ_10, O75970
LRRC7, Q96NW7 = biological target: T3, LRRC7, Q96NW7
MAGI2_2, Q86UL8 = biological target: MAGI2_2, Q86UL8
Inadl_5, Q8NI35 = biological target: Inadl_5, Q8NI35
TJP3_3, O95049 = biological target: T4, TJP3_3, O95049
LNX1_3, Q8TBB1 = biological target: LNX1_3, Q8TBB1
GRIP2_7, Q9C0E4 = biological target: GRIP2_7, Q9C0E4
APBA2_1, Q99767 = biological target: T5, APBA2_1, Q99767
MAGI1_2, Q96QZ7 = biological target: MAGI1_2, Q96QZ7
PTPN13_1, Q12923 = biological target: T6, PTPN13_1, Q12923
PDZRN4_1, Q6ZMN7 = biological target: PDZRN4_1, Q6ZMN7
DFNB31_2, Q9P202 = biological target: T7, DFNB31_2, Q9P202
SYNJ2BP, P57105 = biological target: T8, SYNJ2BP, P57105
MAGI2_4, Q86UL8 = biological target: MAGI2_4, Q86UL8
APBA3_1, O96018 = biological target: T9, APBA3_1, O96018
SNTA1, Q13424 = biological target: T10, SNTA1, Q13424
MPDZ_12, O75970 = biological target: T11, MPDZ_12, O75970
DLG1_2, Q12959 = biological target: DLG1_2, Q12959
RHPN1, Q8TCX5 = biological target: T12, RHPN1, Q8TCX5
DLG1_1, Q12959 = biological target: DLG1_1, Q12959
NHERF3_1, Q5T2W1 = biological target: T13, NHERF3_1, Q5T2W1

Sequence of PDZRN4_1, Q6ZMN7 (Q6ZMN7 213-318): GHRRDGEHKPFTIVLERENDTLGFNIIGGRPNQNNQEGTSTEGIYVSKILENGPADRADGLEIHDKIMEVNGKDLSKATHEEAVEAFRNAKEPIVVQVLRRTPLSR
Sequence of GRIP2_7, Q9C0E4 (Q9C0E4 934-1023): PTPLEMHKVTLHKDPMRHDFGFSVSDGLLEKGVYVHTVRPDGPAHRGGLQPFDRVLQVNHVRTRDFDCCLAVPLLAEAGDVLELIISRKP
Sequence of MAGI1_2, Q96QZ7 (Q96QZ7 456-580): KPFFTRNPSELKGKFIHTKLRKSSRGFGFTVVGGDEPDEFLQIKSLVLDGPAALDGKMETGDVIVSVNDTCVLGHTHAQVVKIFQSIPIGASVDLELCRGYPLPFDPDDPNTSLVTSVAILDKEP
Sequence of MAGI2_2, Q86UL8 (Q86UL8 410-522): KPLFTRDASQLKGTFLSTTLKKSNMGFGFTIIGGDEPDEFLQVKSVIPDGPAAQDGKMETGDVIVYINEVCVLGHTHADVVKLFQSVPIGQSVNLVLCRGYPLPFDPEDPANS
Sequence of NHERF4_4, Q86UT5 (Q86UT5 464-550): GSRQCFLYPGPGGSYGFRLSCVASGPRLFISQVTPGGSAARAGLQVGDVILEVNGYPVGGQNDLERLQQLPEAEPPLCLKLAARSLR
Sequence of LNX1_3, Q8TBB1 (Q8TBB1 500-596): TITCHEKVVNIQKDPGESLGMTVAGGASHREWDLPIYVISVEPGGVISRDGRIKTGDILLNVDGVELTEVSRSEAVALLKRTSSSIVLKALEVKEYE
Sequence of CASK, O14936 (O14936 487-570): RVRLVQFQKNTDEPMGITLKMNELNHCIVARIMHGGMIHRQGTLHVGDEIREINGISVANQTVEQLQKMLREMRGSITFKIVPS
Sequence of Inadl_5, Q8NI35 (Q8NI35 673-780): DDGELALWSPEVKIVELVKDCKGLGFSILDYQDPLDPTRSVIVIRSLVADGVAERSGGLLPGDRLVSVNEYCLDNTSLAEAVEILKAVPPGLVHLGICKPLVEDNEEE
Sequence of MAGI2_4, Q86UL8 (Q86UL8 772-865): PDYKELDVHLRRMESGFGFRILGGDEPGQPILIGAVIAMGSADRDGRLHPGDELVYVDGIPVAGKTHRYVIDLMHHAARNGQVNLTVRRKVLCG

| Binder | pKd (DLG1_3, Q12959) | pKd (CASK, O14936) | pKd (NHERF4_4, Q86UT5) | pKd (GRIP1_7, Q9Y3R0) | pKd (MPDZ_10, O75970) | pKd (LRRC7, Q96NW7) | pKd (MAGI2_2, Q86UL8) | pKd (Inadl_5, Q8NI35) | pKd (TJP3_3, O95049) | pKd (LNX1_3, Q8TBB1) | pKd (GRIP2_7, Q9C0E4) | pKd (APBA2_1, Q99767) | pKd (MAGI1_2, Q96QZ7) | pKd (PTPN13_1, Q12923) | pKd (PDZRN4_1, Q6ZMN7) | pKd (DFNB31_2, Q9P202) | pKd (SYNJ2BP, P57105) | pKd (MAGI2_4, Q86UL8) | pKd (APBA3_1, O96018) | pKd (SNTA1, Q13424) | other results |
| --- | --- | --- | --- | --- | --- | --- | --- | --- | --- | --- | --- | --- | --- | --- | --- | --- | --- | --- | --- | --- | --- |
| NNNVVKVDSV [MTNR1A, P48039] | below the threshold | below the threshold | below the threshold | below the threshold | 3.68 | below the threshold | below the threshold | below the threshold | below the threshold | below the threshold | below the threshold | below the threshold | below the threshold | below the threshold | below the threshold | below the threshold | below the threshold | below the threshold | below the threshold | below the threshold | pKd (MPDZ_12, O75970): below the threshold; pKd (DLG1_2, Q12959): below the threshold; pKd (RHPN1, Q8TCX5): below the threshold; pKd (DLG1_1, Q12959): below the threshold; pKd (NHERF3_1, Q5T2W1): below the threshold |
| GIKKITSTAL [RPS6KA3, P51812] | 3.99 | below the threshold | 3.99 | 3.56 | 3.59 | below the threshold | 4.16 | 3.52 | below the threshold | below the threshold | below the threshold | below the threshold | 4.5 | below the threshold | 4.6 | below the threshold | 4.52 | 3.8 | below the threshold | 3.94 | pKd (MPDZ_12, O75970): below the threshold; pKd (DLG1_2, Q12959): 4.32; pKd (RHPN1, Q8TCX5): 3.93; pKd (DLG1_1, Q12959): 4.05; pKd (NHERF3_1, Q5T2W1): 5.64 |
| SVTSERETNI [SLC16A7, O60669] | below the threshold | below the threshold | below the threshold | below the threshold | below the threshold | below the threshold | below the threshold | below the threshold | below the threshold | below the threshold | below the threshold | below the threshold | below the threshold | below the threshold | below the threshold | below the threshold | 3.63 | below the threshold | below the threshold | 5.09 | pKd (MPDZ_12, O75970): below the threshold; pKd (DLG1_2, Q12959): 4.42; pKd (RHPN1, Q8TCX5): 4.57; pKd (DLG1_1, Q12959): 3.58; pKd (NHERF3_1, Q5T2W1): 3.49 |
